Earlier results, collected in US8420067B2, “Targeted polylysine dendrimer therapeutic agent” (Starpharma Pty Ltd, priority 2006, dated 2013).
Where two headings read alike, the source gives them in different places.

Substance	stability of the conjugate in acidic conditions (acidic conditions (pH 4-6))	stability of the conjugate in acidic conditions (pH 4)	stability of the conjugate in acidic conditions (pH 5)
α-methoxy-ω-{N-2-(3-hydroxypropyl-cholesterylcarbamate)-2-methyl-[1,3]dioxan-5-yl-amido}-polyethyleneglycol110	not stable	–	–
α-methoxy-ω-{N-(2-cholesteryloxy-[1,3]dioxolan-4-yl)methylamido}-polyethyleneglycol110	–	moderately less stable	very stable
α-methoxy-ω-{N-(2-methyl-s-octadecyloxy-[1,3]dioxan-5-yl)-amido}-polyethyleneglycol110	not stable	–	–
α-methoxy-ω-{N-(2-octadecyloxy-[1,3]dioxolan-4-yl)methylamido}-polyethyleneglycol110	–	good stability	good stability
